The series addresses T1, UBP (Sulfolobus islandicus REY15A, UniProt F0NFD3 1-111).
T1 sequence: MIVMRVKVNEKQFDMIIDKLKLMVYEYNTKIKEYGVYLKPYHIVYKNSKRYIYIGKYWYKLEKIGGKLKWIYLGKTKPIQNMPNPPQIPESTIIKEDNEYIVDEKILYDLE
In words: thermal melting protection; 55-65 C, 50 mM NaCl; EMSA: 50 mM K-acetate, 20 mM Tris-acetate, 10 mM Mg-acetate, 1 mM DTT, pH 7.9, 5-10% glycerol, 70 mM NaCl, 800 ng salmon sperm DNA per 10 ul, room temperature 10 min; footprinting same buffer, 4% glycerol, 8000 ng salmon sperm DNA; pull-down 25 mM HEPES pH 7.5, 150 mM NaCl, 10 mM MgCl, 100 uM ZnCl, 10 mM DTT, 48 C. Conditions: protein: recombinant; tags: MBP tag removed by Factor Xa; 3 extra vector residues at N-terminus; chain copies: 2; label: 5'-32P; 40 bp duplex with 10 nt C overhangs at 5' and 3' of strand 2. On the technique in general: A gel shift assay detects complexes by their altered migration in electrophoresis.

B1: 40 bp duplex for melting (P19/P20) (dsDNA)
DNA 1: ATAATTAGATAACCATTATACAAAAGAATTGTATAAGAAT
DNA 2: CCCCCCCCCCATTCTTATACAATTCTTTTGTATAATGGTTATCTAATTATCCCCCCCCCC
Turning to B1, the binding result is given as “binds”.

(Values after PMC12141716, “An archaeal nucleoid-associated protein binds an essential motif in DNA replication origins” (Nature Communications, 2025).)
